IntAct's records for PubMed 31515488

B1: U3 small nucleolar RNA-associated protein 14 homolog C (Homo sapiens), Q5TAP6 (parent)
chain: MNVNQVAENLALSHQEELVDLPKNYPLSENEDEGDSDGERKHQKLLEAIISLDGKNRRKLAERSEASLKVSEFSVSSEGSGEKLGLADLLEPVKTSSSLATVKKQLNRVKSKKVVELPLNKEKIEQIHREVAFSKTSQVLSKWDPIILKNQQAEQLVFPLGKEQPAIAPIEHALSGWKARTPLEQEIFNLLHKNKQPVTDPLLTPMEKASLQAMSLEEAKMHRAELQRARALQSYYEAKARKEKKIKSKKYHKVVKKGKAKKALKEFEQLQKVNPTVALEEMEKIENARMMERMSLKHQNSGKWAKSKAIMAKYDLEARQAMQEQLAKNKELTQKLQVASESEEEEGGTEVEELLVPHVANEVQMNVDGPNPWMFRSCTSDTKEAATQEDPEQVPELAAHEVSASEAEERPVAEEEILLREFEERQSLRKRSELNQDAEPASSQETKDSSSQEVLSELRALSQKLKEKHQSRKQKASSEGTVPQVQREEPAPEEAEPLLLQRSERVQTLEELEELGKEDCFQNKELPRPVLEGQQSERTPNNRPDAPKEKKEKEQLINLQNFLTTQSPSVRSLAVPTIIEELEDEEERDQRQMIKEAFAGDDVIRDFLKEKREAVEASKPKDVDLTLPGWGEWGGVGLKPSAKKRRQFLIKAPEGPPRKDKNLPNVIISEKRNIHAAAHQVQVLPYPFTHHRQFERTIQTPIGSTWNTQRAFQKLTTPKVVTKPGHIIKPIKAEDVGYQSSSRSDLPVIQRNPKRITTRHNKEEKL
partner: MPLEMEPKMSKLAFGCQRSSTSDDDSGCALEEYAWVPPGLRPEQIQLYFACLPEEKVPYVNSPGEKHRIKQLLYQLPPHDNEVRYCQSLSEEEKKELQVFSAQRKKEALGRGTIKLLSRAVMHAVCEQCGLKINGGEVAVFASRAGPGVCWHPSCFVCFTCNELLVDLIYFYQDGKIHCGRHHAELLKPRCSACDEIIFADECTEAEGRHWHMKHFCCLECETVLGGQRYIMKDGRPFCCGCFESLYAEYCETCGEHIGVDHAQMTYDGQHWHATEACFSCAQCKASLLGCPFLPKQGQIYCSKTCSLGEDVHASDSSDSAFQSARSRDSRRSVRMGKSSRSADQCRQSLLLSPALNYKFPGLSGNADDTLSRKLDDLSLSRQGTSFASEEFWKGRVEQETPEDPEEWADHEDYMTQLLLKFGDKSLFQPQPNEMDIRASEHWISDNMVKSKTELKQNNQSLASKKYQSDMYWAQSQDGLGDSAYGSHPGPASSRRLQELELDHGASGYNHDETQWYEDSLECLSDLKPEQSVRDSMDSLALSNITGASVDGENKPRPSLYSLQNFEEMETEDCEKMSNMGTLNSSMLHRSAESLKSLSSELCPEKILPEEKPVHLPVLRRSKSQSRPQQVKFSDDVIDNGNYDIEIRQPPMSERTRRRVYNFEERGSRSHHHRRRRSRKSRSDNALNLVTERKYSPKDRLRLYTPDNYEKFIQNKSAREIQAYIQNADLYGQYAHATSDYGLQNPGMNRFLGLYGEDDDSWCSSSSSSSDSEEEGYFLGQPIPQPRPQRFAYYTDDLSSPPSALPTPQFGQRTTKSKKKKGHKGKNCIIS
B2: Low-density lipoprotein receptor class A domain-containing protein 1 (Homo sapiens), Q5T700 (parent)
chain: MNKVFPQGENGYTAAESKAHPGGEAGGGHLCCSRRGACLSASLLLLLATVAALIALVTILGLPSCTPGAQACITLTNRTGFLCHDQRSCIPASGVCDGVRTCTHGEDEDESLCRDVPQSLPHFLVAHCGDPASWIYSDQKCDGTNNCGDCSDELSPVTVCPPCGPGWWRCPSTFFKYCDCIPRHLCRDHVQHCSDWSDEYACPGP
partner: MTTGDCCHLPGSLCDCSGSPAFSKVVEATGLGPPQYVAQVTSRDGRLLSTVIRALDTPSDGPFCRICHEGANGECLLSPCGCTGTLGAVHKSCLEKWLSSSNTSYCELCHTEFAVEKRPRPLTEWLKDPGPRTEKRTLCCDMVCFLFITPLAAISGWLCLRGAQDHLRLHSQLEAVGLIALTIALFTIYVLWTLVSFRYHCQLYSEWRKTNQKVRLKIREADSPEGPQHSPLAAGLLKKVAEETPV
B3: Isoform 1 of Segment polarity protein dishevelled homolog DVL-3 (Homo sapiens), Q92997-1 (parent)
chain: MGETKIIYHLDGQETPYLVKLPLPAERVTLADFKGVLQRPSYKFFFKSMDDDFGVVKEEISDDNAKLPCFNGRVVSWLVSAEGSHPDPAPFCADNPSELPPPMERTGGIGDSRPPSFHPHAGGGSQENLDNDTETDSLVSAQRERPRRRDGPEHATRLNGTAKGERRREPGGYDSSSTLMSSELETTSFFDSDEDDSTSRFSSSTEQSSASRLMRRHKRRRRKQKVSRIERSSSFSSITDSTMSLNIITVTLNMEKYNFLGISIVGQSNERGDGGIYIGSIMKGGAVAADGRIEPGDMLLQVNEINFENMSNDDAVRVLREIVHKPGPITLTVAKCWDPSPRGCFTLPRSEPIRPIDPAAWVSHTAAMTGTFPAYGMSPSLSTITSTSSSITSSIPDTERLDDFHLSIHSDMAAIVKAMASPESGLEVRDRMWLKITIPNAFIGSDVVDWLYHNVEGFTDRREARKYASNLLKAGFIRHTVNKITFSEQCYYIFGDLCGNMANLSLHDHDGSSGASDQDTLAPLPHPGAAPWPMAFPYQYPPPPHPYNPHPGFPELGYSYGGGSASSQHSEGSRSSGSNRSGSDRRKEKDPKAGDSKSGGSGSESDHTTRSSLRGPRERAPSERSGPAASEHSHRSHHSLASSLRSHHTHPSYGPPGVPPLYGPPMLMMPPPPAAMGPPGAPPGRDLASVPPELTASRQSFRMAMGNPSEFFVDVM
B4: E3 ubiquitin-protein ligase SH3RF2 (Homo sapiens), Q8TEC5 (parent)
chain: MDDLTLLDLLECPVCFEKLDVTAKVLPCQHTFCKPCLQRVFKAHKELRCPECRTPVFSNIEALPANLLLVRLLDGVRSGQSSGRGGSFRRPGTMTLQDGRKSRTNPRRLQASPFRLVPNVRIHMDGVPRAKALCNYRGQNPGDLRFNKGDIILLRRQLDENWYQGEINGISGNFPASSVEVIKQLPQPPPLCRALYNFDLRGKDKSENQDCLTFLKDDIITVISRVDENWAEGKLGDKVGIFPILFVEPNLTARHLLEKNKGRQSSRTKNLSLVSSSSRGNTSTLRRGPGSRRKVPGQFSITTALNTLNRMVHSPSGRHMVEISTPVLISSSNPSVITQPMEKADVPSSCVGQVSTYHPAPVSPGHSTAVVSLPGSQQHLSANMFVALHSYSAHGPDELDLQKGEGVRVLGKCQDGWLRGVSLVTGRVGIFPNNYVIPIFRKTSSFPDSRSPGLYTTWTLSTSSVSSQGSISEGDPRQSRPFKSVFVPTAIVNPVRSTAGPGTLGQGSLRKGRSSMRKNGSLQRPLQSGIPTLVVGSLRRSPTMVLRPQQFQFYQPQGIPSSPSAVVVEMGSKPALTGEPALTCISRGSEAWIHSAASSLIMEDKEIPIKSEPLPKPPASAPPSILVKPENSRNGIEKQVKTVRFQNYSPPPTKHYTSHPTSGKPEQPATLKASQPEAASLGPEMTVLFAHRSGCHSGQQTDLRRKSALGKATTLVSTASGTQTVFPSK
partner: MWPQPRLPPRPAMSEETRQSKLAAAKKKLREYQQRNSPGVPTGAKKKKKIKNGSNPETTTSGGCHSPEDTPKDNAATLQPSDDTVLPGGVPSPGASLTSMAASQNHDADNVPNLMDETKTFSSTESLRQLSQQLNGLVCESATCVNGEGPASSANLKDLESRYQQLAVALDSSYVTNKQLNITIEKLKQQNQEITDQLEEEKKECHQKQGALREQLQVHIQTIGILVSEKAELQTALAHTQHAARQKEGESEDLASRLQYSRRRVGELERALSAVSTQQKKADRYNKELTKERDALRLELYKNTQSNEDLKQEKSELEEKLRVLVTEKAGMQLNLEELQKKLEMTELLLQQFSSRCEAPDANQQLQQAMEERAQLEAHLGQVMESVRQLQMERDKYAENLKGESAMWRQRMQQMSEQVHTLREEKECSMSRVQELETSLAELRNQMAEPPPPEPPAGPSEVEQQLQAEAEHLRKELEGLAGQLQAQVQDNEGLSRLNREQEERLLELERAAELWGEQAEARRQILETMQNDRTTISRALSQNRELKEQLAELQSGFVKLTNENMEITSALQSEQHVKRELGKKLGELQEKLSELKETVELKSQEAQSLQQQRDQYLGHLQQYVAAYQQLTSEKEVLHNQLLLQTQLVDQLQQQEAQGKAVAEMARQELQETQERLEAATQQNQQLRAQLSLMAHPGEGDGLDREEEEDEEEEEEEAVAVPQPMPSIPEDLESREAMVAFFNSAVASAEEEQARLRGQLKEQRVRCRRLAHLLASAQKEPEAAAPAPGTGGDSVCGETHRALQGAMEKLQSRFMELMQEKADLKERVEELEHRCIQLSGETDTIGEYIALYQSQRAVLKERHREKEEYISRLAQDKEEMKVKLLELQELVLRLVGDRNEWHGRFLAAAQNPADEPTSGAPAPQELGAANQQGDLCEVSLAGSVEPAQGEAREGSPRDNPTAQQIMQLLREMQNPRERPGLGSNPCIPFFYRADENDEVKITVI
B5: Protein LDOC1 (Homo sapiens), O95751 (parent)
chain: MVDELVLLLHALLMRHRALSIENSQLMEQLRLLVCERASLLRQVRPPSCPVPFPETFNGESSRLPEFIVQTASYMLVNENRFCNDAMKVAFLISLLTGEAEEWVVPYIEMDSPILGDYRAFLDEMKQCFGWDDDEDDDDEEEEDDY
partner: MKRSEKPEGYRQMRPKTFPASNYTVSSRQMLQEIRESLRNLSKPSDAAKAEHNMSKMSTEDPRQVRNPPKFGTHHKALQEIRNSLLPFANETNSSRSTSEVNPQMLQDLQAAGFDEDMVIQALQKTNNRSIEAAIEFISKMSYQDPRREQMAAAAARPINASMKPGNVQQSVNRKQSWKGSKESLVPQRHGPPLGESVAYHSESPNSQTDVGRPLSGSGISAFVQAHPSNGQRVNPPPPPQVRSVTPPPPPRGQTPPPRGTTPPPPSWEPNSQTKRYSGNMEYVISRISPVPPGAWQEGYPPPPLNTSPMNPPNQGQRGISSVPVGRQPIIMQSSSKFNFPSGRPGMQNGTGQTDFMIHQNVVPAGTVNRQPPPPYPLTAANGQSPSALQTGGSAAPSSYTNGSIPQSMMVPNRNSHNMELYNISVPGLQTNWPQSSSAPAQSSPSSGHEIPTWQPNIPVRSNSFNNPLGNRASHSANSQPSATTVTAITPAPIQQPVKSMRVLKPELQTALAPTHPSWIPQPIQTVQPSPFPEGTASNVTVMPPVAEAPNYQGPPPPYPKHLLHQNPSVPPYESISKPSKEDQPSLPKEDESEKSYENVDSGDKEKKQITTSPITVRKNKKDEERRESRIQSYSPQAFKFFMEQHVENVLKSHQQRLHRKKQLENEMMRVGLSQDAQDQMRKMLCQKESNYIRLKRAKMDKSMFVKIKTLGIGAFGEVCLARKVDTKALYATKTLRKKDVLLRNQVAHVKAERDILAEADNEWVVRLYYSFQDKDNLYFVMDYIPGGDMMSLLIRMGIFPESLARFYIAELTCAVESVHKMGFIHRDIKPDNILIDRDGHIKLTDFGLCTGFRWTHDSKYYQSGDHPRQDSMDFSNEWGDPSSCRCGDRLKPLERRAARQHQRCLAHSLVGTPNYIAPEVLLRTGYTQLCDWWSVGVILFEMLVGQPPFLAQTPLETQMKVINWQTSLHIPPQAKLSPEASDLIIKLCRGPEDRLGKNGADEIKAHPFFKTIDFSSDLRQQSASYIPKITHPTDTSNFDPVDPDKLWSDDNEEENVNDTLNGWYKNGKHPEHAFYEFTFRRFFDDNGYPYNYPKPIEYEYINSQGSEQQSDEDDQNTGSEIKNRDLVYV
B6: Transcription factor 19 (Homo sapiens), Q9Y242 (parent)
chain: MLPCFQLLRIGGGRGGDLYTFHPPAGAGCTYRLGHRADLCDVALRPQQEPGLISGIHAELHAEPRGDDWRVSLEDHSSQGTLVNNVRLPRGHRLELSDGDLLTFGPEGPPGTSPSEFYFMFQQVRVKPQDFAAITIPRSRGEARVGAGFRPMLPSQGAPQRPLSTFSPAPKATLILNSIGSLSKLRPQPLTFSPSWGGPKSLPVPAPPGEMGTTPSAPPQRNRRKSVHRVLAELDDESEPPENPPPVLMEPRKKLRVDKAPLTPTGNRRGRPRKYPVSAPMAPPAVGGGEPCAAPCCCLPQEETVAWVQCDGCDVWFHVACVGCSIQAAREADFRCPGCRAGIQT

Variants of: B1
Details: with pric1_human PRICKLE1, Q96MT3

| Variant | effect of a mutation on the interaction |
| --- | --- |
| A652T | with no effect |
| T101A | disrupting interaction strength |

Further lines, results first:

| effect of a mutation on the interaction | Variant |
| --- | --- |
| with no effect | K247E |
| with no effect | I170V |
| with no effect | V109D |

Variants of: B2
Details: with marh2_human MARCHF2, Q9P0N8

| effect of a mutation on the interaction | Variant |
| --- | --- |
| with no effect | E108K |

Variants of: B3
Details: with kat7_human KAT7, O95251
kat7_human KAT7, O95251, sequence (O95251 whole entry): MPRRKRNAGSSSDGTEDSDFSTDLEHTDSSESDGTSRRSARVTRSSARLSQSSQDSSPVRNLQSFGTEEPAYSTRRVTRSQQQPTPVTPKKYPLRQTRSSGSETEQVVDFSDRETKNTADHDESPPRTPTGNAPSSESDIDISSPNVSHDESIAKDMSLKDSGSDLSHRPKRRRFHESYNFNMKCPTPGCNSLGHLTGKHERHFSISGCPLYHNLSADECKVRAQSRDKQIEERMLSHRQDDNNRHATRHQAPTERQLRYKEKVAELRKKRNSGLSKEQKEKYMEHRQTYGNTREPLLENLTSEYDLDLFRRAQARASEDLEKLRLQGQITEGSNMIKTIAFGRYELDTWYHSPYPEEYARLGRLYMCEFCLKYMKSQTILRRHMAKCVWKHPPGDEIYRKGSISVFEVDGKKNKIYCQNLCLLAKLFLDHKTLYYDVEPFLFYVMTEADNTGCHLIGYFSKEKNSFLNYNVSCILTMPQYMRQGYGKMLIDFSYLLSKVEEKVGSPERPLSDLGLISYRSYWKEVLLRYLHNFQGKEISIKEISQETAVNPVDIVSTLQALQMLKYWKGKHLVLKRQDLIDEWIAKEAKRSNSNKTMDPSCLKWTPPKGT

| effect of a mutation on the interaction | Variant |
| --- | --- |
| with no effect | R216T |

Variants of: B4
Details: with goga2_human GOLGA2, Q08379

| effect of a mutation on the interaction | Variant |
| --- | --- |
| with no effect | V687I |

Variants of: B5
Details: with lats1_human LATS1, O95835

| effect of a mutation on the interaction | Variant |
| --- | --- |
| disrupting interaction strength | L12H |

Variants of: B6
Details: with dnja3_human DNAJA3, Q96EY1
dnja3_human DNAJA3, Q96EY1, sequence (Q96EY1 whole entry): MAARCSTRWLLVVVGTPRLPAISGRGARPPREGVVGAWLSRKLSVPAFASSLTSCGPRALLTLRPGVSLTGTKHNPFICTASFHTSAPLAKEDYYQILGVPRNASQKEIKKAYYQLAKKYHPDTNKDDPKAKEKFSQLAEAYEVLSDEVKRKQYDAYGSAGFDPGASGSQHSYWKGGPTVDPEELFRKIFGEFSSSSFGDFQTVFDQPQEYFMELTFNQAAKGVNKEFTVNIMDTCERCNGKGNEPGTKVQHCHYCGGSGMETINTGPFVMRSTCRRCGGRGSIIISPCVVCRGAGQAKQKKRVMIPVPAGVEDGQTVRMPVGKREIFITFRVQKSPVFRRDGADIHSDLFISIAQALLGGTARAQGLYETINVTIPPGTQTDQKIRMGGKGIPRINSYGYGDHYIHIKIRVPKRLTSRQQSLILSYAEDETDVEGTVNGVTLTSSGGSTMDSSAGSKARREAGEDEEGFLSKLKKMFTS

| effect of a mutation on the interaction | Variant |
| --- | --- |
| with no effect | A279V |
